These results are taken from publication PMC5374059 (Journal of molecular biology, 2016).

Ends that are not written are not given here. Me3 = trimethyl-lysine; Me2 = dimethyl

For test [1], the target named is Set3 PHD finger (wild type, as used in fluorescence and NMR titrations) (yeast) (UniProt P36124). Nature of the test: NMR titration.
Test [2] has the same target. Briefly: other fluorescence titration.
In test [3] the target is T131M mutant of Set3 PHD (yeast) (UniProt P36124). Nature of the test: other fluorescence titration.
In test [4] the target is T1, Set3 PHD finger (aa 116-184), crystallised (yeast, UniProt P36124 116-184).
T1 sequence (looked up): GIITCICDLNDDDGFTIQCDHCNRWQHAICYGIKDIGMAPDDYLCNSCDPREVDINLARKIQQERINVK
Briefly: crystal structure.

Another test addresses T2, M132T mutant of MLL5 PHD (human, UniProt Q8IZD2 117-181, M132T).
T2 sequence (looked up): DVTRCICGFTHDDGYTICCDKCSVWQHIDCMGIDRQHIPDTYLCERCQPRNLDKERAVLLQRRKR
Briefly: NMR titration.

In test [1], “histone H3K4me0 peptide (unmodified, residues 1-12 of histone H3) (from UniProt P61830 2-13)” had a Kd of 1400 µM.
In test [1], “histone H3K4me1 peptide (residues 1-12 of histone H3) (from UniProt P61830 2-13)” returned a Kd of 790 µM.
For the molecule “histone H3K4me2 peptide (residues 1-12 of histone H3) (from UniProt P61830 2-13)”, the Kd stood at 30 µM in test [2] and 8 µM in test [3].
Take “histone H3K4me3 peptide (residues 1-12 of histone H3) (from UniProt P61830 2-13)”: the Kd in test [2] stood at 20 µM; in test [3], 2.5 µM.

B1: histone H3K4me2 peptide (residues 1-12 of histone H3) (peptide, UniProt P61830 2-13, looked up)
peptide: ARTK(Me2)QTARKSTG
As to B1, the binding result in test [4] is “binds”.

B2: histone H3K4me3 peptide (residues 1-12 of histone H3) (peptide, UniProt P61830 2-13, looked up)
peptide: ARTK(Me3)QTARKSTG
On to B2, for which the “fold selectivity for H3K4me3 over H3K4me2” value in the test with M132T mutant of MLL5 PHD came to 1.5 fold. Besides, in test [4], the binding result is listed as “binds”.
